Data: US5126134A, “Pharmaceutically active combination” (Ciba-Geigy Corporation, priority 1988, dated 1992)

Columns and labels:
[1] = system: 125I-fibrinogen labelled thrombi in the jugular vein; assay: Rabbit jugular vein thrombosis model: enhancement of t-PA induced lysis; format: in vivo, New Zealand white rabbits; details: 0.5 mg t-PA infused i.v. over 3 hours, mean of n animals
Description: The experiments are performed with New Zealand white rabbits (weighing 2.3-3.5 kg) anaesthesized by intravenous (marginal ear vein) injection of 30 mg/kg sodium pentobarbital. Through a paramedical incision of the neck, the jugular veins and the right carotid artery are exposed. The right carotid artery is cannulated with a 1.5 mm diameter polyethylene cannula for blood sampling. The two jugular veins are isolated, cleared over a distance of 2 cm, small side branches are ligated. Each jugular segment is emptied of blood and blood flow is temporarily occluded both proximally and distally by two angiostaths, 1.5 cm apart. A 10 cm length 3.0 TiCron braided polyester suture, presoaked in a collagen solution, is introduced lengthwise in the lumen of the isolated jugular vein for a distance of 4 cm to avoid the embolization of the thrombus to be produced. 150 μl of citrated rabbit blood containing 5 μl of ^125 I-fibrinogen (approx. 500 000 cpm) is then aspirated in a 1 ml tubercoline syringe containing 50 μl (5 I.U.) of thrombin and 10 μl of CaCl2 (0.25M). […] At the end of the infusion, the thrombi remaining in the vessel are removed and their size is determined by measuring the amount of residual ^125 I-labeled fibrinogen remaining in the thrombi and comparing the results with those of the saline controls.

[2] = system: preformed non-radioactive thrombi in the jugular vein; assay: Rabbit jugular vein thrombosis model: inhibition of thrombus accretion during thrombolysis with t-PA; format: in vivo, New Zealand white rabbits; details: FIG. 1; three hours infusion of t-PA alone or along with heparin (0.75 mg/kg)
Description: The experiments are performed with New Zealand white rabbits (weighing 2.3-3.5 kg) anaesthesized by intravenous (marginal ear vein) injection of 30 mg/kg sodium pentobarbital. Through a paramedical incision of the neck, the jugular veins and the right carotid artery are exposed. The right carotid artery is cannulated with a 1.5 mm diameter polyethylene cannula for blood sampling. The two jugular veins are isolated, cleared over a distance of 2 cm, small side branches are ligated. Each jugular segment is emptied of blood and blood flow is temporarily occluded both proximally and distally by two angiostaths, 1.5 cm apart. A 10 cm length 3.0 TiCron braided polyester suture, presoaked in a collagen solution, is introduced lengthwise in the lumen of the isolated jugular vein for a distance of 4 cm to avoid the embolization of the thrombus to be produced. […] The effects of standard heparin and recombinant desulfato hirudin in preventing thrombus extension during thrombolysis with t-PA are assessed as their ability to inhibit the accretion of ^125 I-fibrinogen onto autologous non-radioactive thrombi preformed in the jugular vein of rabbits. […] The ratio of the radioactivity of the thrombus to the circulating fibrinogen radioactivity is used to quantify thrombus size, which is then expressed as μg or ^125 I-fibrinogen accreted onto the thrombus.

B1: t-PA: tissue-type plasminogen activator derived from melanoma cell cultures (BioResponse); infused with saline (protein, UniProt P00750 36-562, looked up)
Tissue-type plasminogen …: SYQVICRDEKTQMIYQQHQSWLRPVLRSNRVEYCWCNSGRAQCHSVPVKSCSEPRCFNGGTCQQALYFSDFVCQCPEGFAGKCCEIDTRATCYEDQGISYRGTWSTAESGAECTNWNSSALAQKPYSGRRPDAIRLGLGNHNYCRNPDRDSKPWCYVFKAGKYSSEFCSTPACSEGNSDCYFGNGSAYRGTHSLTESGASCLPWNSMILIGKVYTAQNPSAQALGLGKHNYCRNPDGDAKPWCHVLKNRRLTWEYCDVPSCSTCGLRQYSQPQFRIKGGLFADIASHPWQAAIFAKHRRSPGERFLCGGILISSCWILSAAHCFQERFPPHHLTVILGRTYRVVPGEEEQKFEVEKYIVHKEFDDDTYDNDIALLQLKSDSSRCAQESSVVRTVCLPPADLQLPDWTECELSGYGKHEALSPFYSERLKEAHVRLYPSSRCTSQHLLNRTVTDNMLCAGDTRSGGPQANLHDACQGDSGGPLVCLNDGRMTLVGIISWGLGCGQKDVPGVYTKVTNYLDWIRDNMRP
modifications: melanoma cell derived
notes: infused with saline
% lysis ([1]; First set of experiments, hirudin 1 mg/kg): 44% | % lysis ([1]; Second set of experiments, heparin 0.75 mg/kg): 37% | 125I-fibrinogen accreted onto the thrombus [2]: 52 µg
